In US20250262210A1 (TRUSTEES OF COLUMBIA UNIVERSITY IN THE CITY OF NEW YORK, published 2025):

Experiments:
Assay in all cases: IP/MS, LZTR1 R810W-FLAG, U87
[1] = biological target: T1, NCAPG2 (human, UniProt Q86XI2 1-1143, limits assumed)
T1 sequence (looked up): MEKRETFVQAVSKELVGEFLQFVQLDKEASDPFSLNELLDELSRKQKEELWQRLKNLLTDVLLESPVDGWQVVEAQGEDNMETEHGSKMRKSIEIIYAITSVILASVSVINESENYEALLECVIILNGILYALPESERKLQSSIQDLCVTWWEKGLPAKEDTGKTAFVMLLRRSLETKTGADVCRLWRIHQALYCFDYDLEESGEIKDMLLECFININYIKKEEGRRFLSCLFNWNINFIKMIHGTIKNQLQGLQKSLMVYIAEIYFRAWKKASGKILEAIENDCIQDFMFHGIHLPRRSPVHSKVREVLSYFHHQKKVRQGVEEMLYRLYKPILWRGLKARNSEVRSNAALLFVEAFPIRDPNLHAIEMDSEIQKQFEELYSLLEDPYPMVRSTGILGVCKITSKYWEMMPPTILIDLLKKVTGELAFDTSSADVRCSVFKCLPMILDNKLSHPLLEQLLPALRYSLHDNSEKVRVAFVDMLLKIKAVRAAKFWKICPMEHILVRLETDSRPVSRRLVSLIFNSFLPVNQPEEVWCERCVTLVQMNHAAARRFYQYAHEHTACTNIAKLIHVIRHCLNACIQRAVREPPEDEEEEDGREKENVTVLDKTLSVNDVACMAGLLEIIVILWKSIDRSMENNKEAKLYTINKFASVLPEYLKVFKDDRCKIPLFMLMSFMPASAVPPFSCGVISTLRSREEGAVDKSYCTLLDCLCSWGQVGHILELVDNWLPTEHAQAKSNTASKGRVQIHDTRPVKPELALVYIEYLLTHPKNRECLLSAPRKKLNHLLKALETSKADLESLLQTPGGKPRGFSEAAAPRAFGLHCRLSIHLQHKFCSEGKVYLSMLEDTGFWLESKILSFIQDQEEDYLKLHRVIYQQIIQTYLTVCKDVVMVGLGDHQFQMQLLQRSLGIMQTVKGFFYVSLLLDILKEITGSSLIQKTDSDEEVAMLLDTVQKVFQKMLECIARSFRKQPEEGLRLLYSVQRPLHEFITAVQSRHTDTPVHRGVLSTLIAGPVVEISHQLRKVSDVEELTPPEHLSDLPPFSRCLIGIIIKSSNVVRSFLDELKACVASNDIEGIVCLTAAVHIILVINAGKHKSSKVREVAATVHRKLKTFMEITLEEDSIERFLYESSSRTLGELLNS
In short: (§1)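 Read-out: spectral counts from LC-MS/MS (Orbitrap Fusion) after MaxQuant identification. Variable modifications were Met oxidation, protein N-terminal acetylation and N/Q deamidation.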

[2] = biological target: T2, MED24 (human, UniProt O75448 1-989, limits assumed)
T2 sequence (looked up): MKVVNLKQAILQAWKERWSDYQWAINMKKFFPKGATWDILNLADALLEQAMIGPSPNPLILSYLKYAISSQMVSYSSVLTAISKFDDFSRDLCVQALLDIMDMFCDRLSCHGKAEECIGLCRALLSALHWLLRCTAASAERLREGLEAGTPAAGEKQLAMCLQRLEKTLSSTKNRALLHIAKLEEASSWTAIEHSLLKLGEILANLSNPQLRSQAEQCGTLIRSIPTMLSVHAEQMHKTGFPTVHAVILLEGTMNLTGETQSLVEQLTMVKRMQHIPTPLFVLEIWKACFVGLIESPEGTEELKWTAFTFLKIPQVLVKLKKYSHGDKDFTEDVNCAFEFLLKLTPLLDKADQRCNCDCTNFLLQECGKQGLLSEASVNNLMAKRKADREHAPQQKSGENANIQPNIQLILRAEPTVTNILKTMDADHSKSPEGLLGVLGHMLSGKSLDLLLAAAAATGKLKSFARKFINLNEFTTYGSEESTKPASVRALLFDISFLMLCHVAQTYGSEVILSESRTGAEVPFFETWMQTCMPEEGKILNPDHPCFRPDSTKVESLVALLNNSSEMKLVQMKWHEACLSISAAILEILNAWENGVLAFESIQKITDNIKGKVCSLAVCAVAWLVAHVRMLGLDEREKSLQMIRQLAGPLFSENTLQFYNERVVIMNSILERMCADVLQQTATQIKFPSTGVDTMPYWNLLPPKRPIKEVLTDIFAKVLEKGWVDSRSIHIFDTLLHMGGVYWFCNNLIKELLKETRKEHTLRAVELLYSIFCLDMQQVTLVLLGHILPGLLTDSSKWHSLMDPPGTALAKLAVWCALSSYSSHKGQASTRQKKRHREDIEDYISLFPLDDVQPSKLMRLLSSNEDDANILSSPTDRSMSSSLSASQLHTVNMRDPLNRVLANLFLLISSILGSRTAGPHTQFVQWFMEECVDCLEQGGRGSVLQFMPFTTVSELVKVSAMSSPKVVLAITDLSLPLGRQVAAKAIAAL
In short: as §1

[3] = biological target: KNL1 (human, UniProt Q8NG31 1-2342, limits assumed)
In short: as §1

Measured: binding result

KNL1, sequence (Q8NG31 whole entry): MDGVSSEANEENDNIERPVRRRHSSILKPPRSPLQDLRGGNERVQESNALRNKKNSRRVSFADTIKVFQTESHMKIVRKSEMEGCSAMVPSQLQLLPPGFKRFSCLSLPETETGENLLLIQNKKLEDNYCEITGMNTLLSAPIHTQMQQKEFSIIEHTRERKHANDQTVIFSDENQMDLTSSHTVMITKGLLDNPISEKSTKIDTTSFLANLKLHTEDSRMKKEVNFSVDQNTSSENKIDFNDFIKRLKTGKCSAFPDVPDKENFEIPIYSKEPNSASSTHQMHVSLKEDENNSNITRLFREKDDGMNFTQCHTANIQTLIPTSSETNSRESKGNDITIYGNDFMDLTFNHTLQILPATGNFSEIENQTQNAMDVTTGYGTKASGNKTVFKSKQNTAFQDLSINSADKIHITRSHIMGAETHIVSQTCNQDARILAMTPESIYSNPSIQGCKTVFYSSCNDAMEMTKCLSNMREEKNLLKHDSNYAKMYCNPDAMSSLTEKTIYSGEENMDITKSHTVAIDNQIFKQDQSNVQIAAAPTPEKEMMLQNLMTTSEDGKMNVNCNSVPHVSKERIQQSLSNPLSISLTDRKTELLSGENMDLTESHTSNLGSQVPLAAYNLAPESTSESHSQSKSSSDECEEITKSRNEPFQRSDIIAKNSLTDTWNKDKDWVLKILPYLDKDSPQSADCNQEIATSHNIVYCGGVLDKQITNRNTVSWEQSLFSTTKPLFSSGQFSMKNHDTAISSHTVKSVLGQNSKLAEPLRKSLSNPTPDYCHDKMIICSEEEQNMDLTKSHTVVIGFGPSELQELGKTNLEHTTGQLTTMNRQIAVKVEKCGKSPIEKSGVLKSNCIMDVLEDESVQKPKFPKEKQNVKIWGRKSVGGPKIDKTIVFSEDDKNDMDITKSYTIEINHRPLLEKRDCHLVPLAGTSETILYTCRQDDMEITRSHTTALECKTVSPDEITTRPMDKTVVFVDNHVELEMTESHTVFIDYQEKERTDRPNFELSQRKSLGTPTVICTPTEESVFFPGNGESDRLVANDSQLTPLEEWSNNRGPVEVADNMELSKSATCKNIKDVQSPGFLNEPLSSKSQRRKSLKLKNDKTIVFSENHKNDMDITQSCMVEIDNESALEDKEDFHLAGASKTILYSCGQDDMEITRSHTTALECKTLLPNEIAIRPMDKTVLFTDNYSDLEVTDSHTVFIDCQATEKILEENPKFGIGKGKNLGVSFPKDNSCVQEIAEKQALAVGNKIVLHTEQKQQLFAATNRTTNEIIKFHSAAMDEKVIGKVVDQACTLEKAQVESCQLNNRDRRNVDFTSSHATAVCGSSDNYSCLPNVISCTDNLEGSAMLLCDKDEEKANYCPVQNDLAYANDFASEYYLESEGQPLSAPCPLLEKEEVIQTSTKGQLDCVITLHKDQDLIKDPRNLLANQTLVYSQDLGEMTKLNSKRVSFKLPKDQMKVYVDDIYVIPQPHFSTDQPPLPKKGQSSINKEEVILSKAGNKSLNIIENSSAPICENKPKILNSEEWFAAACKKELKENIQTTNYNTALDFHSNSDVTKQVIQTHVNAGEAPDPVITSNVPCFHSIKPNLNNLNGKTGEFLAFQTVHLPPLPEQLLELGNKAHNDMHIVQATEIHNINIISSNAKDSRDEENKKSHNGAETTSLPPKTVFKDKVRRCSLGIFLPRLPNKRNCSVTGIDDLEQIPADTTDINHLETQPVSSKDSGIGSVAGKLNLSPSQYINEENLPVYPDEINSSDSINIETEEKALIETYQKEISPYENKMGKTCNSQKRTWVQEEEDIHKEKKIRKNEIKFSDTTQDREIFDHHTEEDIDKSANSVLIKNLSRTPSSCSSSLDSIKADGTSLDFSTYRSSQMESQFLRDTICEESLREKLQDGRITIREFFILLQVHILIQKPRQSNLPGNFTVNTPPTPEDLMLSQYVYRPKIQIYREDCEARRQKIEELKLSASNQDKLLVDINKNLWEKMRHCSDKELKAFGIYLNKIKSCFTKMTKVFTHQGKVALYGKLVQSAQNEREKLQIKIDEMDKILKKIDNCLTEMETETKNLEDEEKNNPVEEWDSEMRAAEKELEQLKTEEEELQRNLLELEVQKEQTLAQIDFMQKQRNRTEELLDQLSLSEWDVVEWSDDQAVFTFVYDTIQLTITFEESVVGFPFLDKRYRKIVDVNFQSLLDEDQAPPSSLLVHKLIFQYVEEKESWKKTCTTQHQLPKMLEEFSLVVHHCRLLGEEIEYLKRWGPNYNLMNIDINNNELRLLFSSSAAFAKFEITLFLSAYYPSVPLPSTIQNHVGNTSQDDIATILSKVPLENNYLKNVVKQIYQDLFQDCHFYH

B1: LZTR1 R810W-FLAG (other, human, UniProt Q8N653 1-840, looked up)
chain: MAGPGSTGGQIGAAALAGGARSKVAPSVDFDHSCSDSVEYLTLNFGPFETVHRWRRLPPCDEFVGARRSKHTVVAYKDAIYVFGGDNGKTMLNDLLRFDVKDCSWCRAFTTGTPPAPRYHHSAVVYGSSMFVFGGYTGDIYSNSNLKNKNDLFEYKFATGQWTEWKIEGRLPVARSAHGATVYSDKLWIFAGYDGNARLNDMWTIGLQDRELTCWEEVAQSGEIPPSCCNFPVAVCRDKMFVFSGQSGAKITNNLFQFEFKDKTWTRIPTEHLLRGSPPPPQRRYGHTMVAFDRHLYVFGGAADNTLPNELHCYDVDFQTWEVVQPSSDSEVGGAEVPERACASEEVPTLTYEERVGFKKSRDVFGLDFGTTSAKQPTQPASELPSGRLFHAAAVISDAMYIFGGTVDNNIRSGEMYRFQFSCYPKCTLHEDYGRLWESRQFCDVEFVLGEKEECVQGHVAIVTARSRWLRRKITQARERLAQKLEQEAAPVPREAPGVAAGGARPPLLHVAIREAEARPFEVLMQFLYTDKIKYPRKGHVEDVLLIMDVYKLALSFQLCRLEQLCRQYIEASVDLQNVLVVCESAARLQLSQLKEHCLNFVVKESHFNQVIMMKEFERLSSPLIVEIVRRKQQPPPRTPLDQPVDIGTSLIQDMKAYLEGAGAEFCDITLLLDGHPRPAHKAILAARSSYFEAMFRSFMPEDGQVNISIGEMVPSRQAFESMLRYIYYGEVNMPPEDSLYLFAAPYYYGFYNNRLQAYCKQNLEMNVTVQNVLQILEAADKTQALDMKRHCLHIIVHQFTKVSKLPTLWSLSQQLLLDIIDSLASHISDKQCAELGADI
notes: Stably expressed in U87 cells by lentivirus; also called LZTR1-FLAG-R810W; LZTR1 RW; not shown: FLAG tag
binds: [1] | [2] | [3]
